Assay results taken from patent US20150266922.

What was measured:
[1] = target: T1, SUMO1 EIL peptide SLRFLFEGQRIADNH (SEQ ID NO: 1)
T1 chain: SLRFLFEGQRIADNH

[2] = target: RanGAP modified with SUMO1, P63165
SLRFLYEG (SEQ ID NO: 38) = target: T2, SLRFLYEG (SEQ ID NO: 38)
T2 chain: SLRFLYEG

Chain of SUMO2, P61956 (P61956 1-93): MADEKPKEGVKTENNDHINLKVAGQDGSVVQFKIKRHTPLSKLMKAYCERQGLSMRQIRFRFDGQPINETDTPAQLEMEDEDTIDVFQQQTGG
Chain of SUMO2D71H, P61956 (P61956 other isoform, or with tags, fused parts or gaps): as the sequence (P61956 1-93) above, with D71H counted along it
Chain of SUMO2R61L, P61956 (P61956 1-93 R61L): as the sequence (P61956 1-93) above, with R61L counted along it

B1: Dipeptidyl peptidase 9 (DPP9), recombinant wild-type (protein)
chain: MRKVKKLRLDKENTGSWRSFSLNSEGAERMATTGTPTADRGDAAATDDPAARFQVQKHSWDGLRSIIHGSRKYSGLIVNKAPHDFQFVQKTDESGPHSHRLYYLGMPYGSRENSLLYSEIPKKVRKEALLLLSWKQMLDHFQATPHHGVYSREEELLRERKRLGVFGITSYDFHSESGLFLFQASNSLFHCRDGGKNGFMVSPMKPLEIKTQCSGPRMDPKICPADPAFFSFINNSDLWVANIETGEERRLTFCHQGLSNVLDDPKSAGVATFVIQEEFDRFTGYWWCPTASWEGSEGLKTLRILYEEVDESEVEVIHVPSPALEERKTDSYRYPRTGSKNPKIALKLAEFQTDSQGKIVSTQEKELVQPFSSLFPKVEYIARAGWTRDGKYAWAMFLDRPQQWLQLVLLPPALFIPSTENEEQRLASARAVPRNVQPYVVYEEVTNVWINVHDIFYPFPQSEGEDELCFLRANECKTGFCHLYKVTAVLKSQGYDWSEPFSPGEDEFKCPIKEEIALTSGEWEVLARHGSKIWVNEETKLVYFQGTKDTPLEHHLYVVSYEAAGEIVRLTTPGFSHSCSMSQNFDMFVSHYSSVSTPPCVHVYKLSGPDDDPLHKQPRFWASMMEAASCPPDYVPPEIFHFHTRSDVRLYGMIYKPHALQPGKKHPTVLFVYGGPQVQLVNNSFKGIKYLRLNTLASLGYAVVVIDGRGSCQRGLRFEGALKNQMGQVEIEDQVEGLQFVAEKYGFIDLSRVAIHGWSYGGFLSLMGLIHKPQVFKVAIAGAPVTVWMAYDTGYTERYMDVPENNQHGYEAGSVALHVEKLPNEPNRLLILHGFLDENVHFFHTNFLVSQLIRAGKPYQLQIYPNERHSIRCPESGEHYEVTLLHFLQEYL
hydrolysis of GP-AMC by DPP9 (SUMO2R61L, P61956): This activation was not observed in the presence of SUMO2R61L
hydrolysis of GP-AMC by DPP9 (SUMO2D71H, P61956): DPP9 activity was increased in the presence of SUMO2 mutated in a single amino acid: D71H
hydrolysis of GP-AMC by recombinant DPP9 [1]: pure recombinant DPP8 and DPP9 are inhibited by the EIL peptide, also in the absence of SUMO1
hydrolysis of GP-AMC by DPP9 (SUMO1E67A, P63165): this activation was not observed in the presence of SUMO1 mutated in a single amino acid: SUMO1E67A
hydrolysis of GP-AMC by DPP9 (RanGAP): DPP9 activity is increased when incubated with RanGAP modified by SUMO1, but not by unmodified RanGAP
hydrolysis of GP-AMC by DPP9 [2]: DPP9 activity is increased when incubated with RanGAP modified by SUMO1, but not by unmodified RanGAP
hydrolysis rate of GP-AMC by DPP9 (SUMO1, P63165): the hydrolysis rate of GP-AMC by DPP9 was increased in the presence of SUMO1 in comparison to control reactions
hydrolysis of GP-AMC by DPP9 (SUMO2, P61956): SUMO1 but not SUMO2 can regulate DPP9 activity

B2: Dipeptidyl peptidase 8 (DPP8), recombinant (protein)
chain: MWKRSEQMKIKSGKCNMAAAMETEQLGVEIFETADCEENIESQDRPKLEPFYVERYSWSQLKKLLADTRKYHGYMMAKAPHDFMFVKRNDPDGPHSDRIYYLAMSGENRENTLFYSEIPKTINRAAVLMLSWKPLLDLFQATLDYGMYSREEELLRERKRIGTVGIASYDYHQGSGTFLFQAGSGIYHVKDGGPQGFTQQPLRPNLVETSCPNIRMDPKLCPADPDWIAFIHSNDIWISNIVTREERRLTYVHNELANMEEDARSAGVATFVLQEEFDRYSGYWWCPKAETTPSGGKILRILYEENDESEVEIIHVTSPMLETRRADSFRYPKTGTANPKVTFKMSEIMIDAEGRIIDVIDKELIQPFEILFEGVEYIARAGWTPEGKYAWSILLDRSQTRLQIVLISPELFIPVEDDVMERQRLIESVPDSVTPLIIYEETTDIWINIHDIFHVFPQSHEEEIEFIFASECKTGFRHLYKITSILKESKYKRSSGGLPAPSDFKCPIKEEIAITSGEWEVLGRHGSNIQVDEVRRLVYFEGTKDSPLEHHLYVVSYVNPGEVTRLTDRGYSHSCCISQHCDFFISKYSNQKNPHCVSLYKLSSPEDDPTCKTKEFWATILDSAGPLPDYTPPEIFSFESTTGFTLYGMLYKPHDLQPGKKYPTVLFIYGGPQVQLVNNRFKGVKYFRLNTLASLGYVVVVIDNRGSCHRGLKFEGAFKYKMGQIEIDDQVEGLQYLASRYDFIDLDRVGIHGWSYGGYLSLMALMQRSDIFRVAIAGAPVTLWIFYDTGYTERYMGHPDQNEQGYYLGSVAMQAEKFPSEPNRLLLLHGFLDENVHFAHTSILLSFLVRAGKPYDLQIYPQERHSIRVPESGEHYELHLLHYLQENLGSRIAALKVI
hydrolysis of GP-AMC by recombinant DPP8 [1]: pure recombinant DPP8 and DPP9 are inhibited by the EIL peptide, also in the absence of SUMO1

B3: Dipeptidyl peptidase IV (DPPIV) (protein)
chain: SRKTYTLTDYLKNTYRLKLYSLRWISDHEYLYKQENNILVFNAEYGNSSVFLENSTFDEFGHSINDYSISPDGQFILLEYNYVKQWRHSYTASYDIYDLNKRQLITEERIPNNTQWVTWSPVGHKLAYVWNNDIYVKIEPNLPSYRITWTGKEDIIYNGITDWVYEEEVFSAYSALWWSPNGTFLAYAQFNDTEVPLIEYSFYSDESLQYPKTVRVPYPKAGAVNPTVKFFVVNTDSLSSVTNATSIQITAPASMLIGDHYLCDVTWATQERISLQWLRRIQNYSVMDICDYDESSGRWNCLVARQHIEMSTTGWVGRFRPSEPHFTLDGNSFYKIISNEEGYRHICYFQIDKKDCTFITKGTWEVIGIEALTSDYLYYISNEYKGMPGGRNLYKIQLSDYTKVTCLSCELNPERCQYYSVSFSKEAKYYQLRCSGPGLPLYTLHSSVNDKGLRVLEDNSALDKMLQNVQMPSKKLDFIILNETKFWYQMILPPHFDKSKKYPLLLDVYAGPCSQKADTVFRLNWATYLASTENIIVASFDGRGSGYQGDKIMHAINRRLGTFEVEDQIEAARQFSKMGFVDNKRIAIWGWSYGGYVTSMVLGSGSGVFKCGIAVAPVSRWEYYDSVYTERYMGLPTPEDNLDHYRNSTVMSRAENFKQVEYLLIHGTADDNVHFQQSAQISKALVDVGVDFQAMWYTDEDHGIASSTAHQHIYTHMSHFIKQCFSLP
hydrolysis of GP-AMC by DPPIV [1]: DPPIV is not inhibited by the EIL peptide, also in the presence of 13 µM peptide
hydrolysis of GP-AMC by DPPIV (SLRFLYEG (SEQ ID NO: 38)): It has no inhibitory effect towards DPPIV, in the concentrations measured (up to 50 µM)
